The record followed here is US20200308281A1 (KITE PHARMA, published 2020).

The test concerns the target T1, alpha chain of the constant region of the murine T cell receptor (TCR) (murine, UniProt P01849 1-136).
T1 construct: Endogenous protein in mouse spleen tissue; The variable parts and the beta chains are those of the tissue's T cells and are not defined; also called mouse spleen TCR
T1 TCR alpha (looked up): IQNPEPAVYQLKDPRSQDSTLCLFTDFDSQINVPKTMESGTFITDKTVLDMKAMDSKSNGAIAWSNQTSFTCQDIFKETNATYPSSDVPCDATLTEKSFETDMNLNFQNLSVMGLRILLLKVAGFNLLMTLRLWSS
As to the kind of experiment: immunohistochemistry on FFPE section of mouse spleen. The method, then:
The candidate antibodies were screened for their utility in immunohistochemistry. Specimens were sectioned at 4 micron thickness, mounted onto positive-charged glass slides, dried, baked, deparaffinized, and rehydrated. Following rehydration, tissue sections were incubated in Envision Peroxidase (Dako) for 5 minutes to quench endogenous peroxidase. Sections underwent heat-induced epitope retrieval using high-pH buffer for 40 minutes in a water bath set to 95° C. followed by a rinse in neutral buffer. Slides were incubated with antibody or negative reagent control diluted in diluent for 30 minutes. Slides were then rinsed twice in buffer for 5 minutes each followed by detection using the Envision+Rabbit HRP Detection Kit (Dako) for 30 minutes. Slides were rinsed twice with buffer for 5 minutes each followed by incubation with DAB (Dako) for 5 minutes. Slides were rinsed with water, counterstained with hematoxylin, blued in ammonia water, dehydrated through graded alcohols, cleared in xylene, and coverslipped. As shown in FIGS. 5A-E, E7 TCR-transduced, Peripheral blood mononuclear cells (PBMCs) transduced with the MAGE A3/A6 TCR, and FFPE section of mouse spleen stain with the exemplary mAb clone 39 (KIP-8) antibody described herein. […] Normal mouse spleen sections stain with KIP-8 further indicating its specificity for the murine alpha constant sequence.

B1: KIP-8 antibody (mAb clone 39; Clone 39-4) (antibody, V domains shown)
VH: QEQLVESGGGLVQPEGSLTLTCTASGFDLGNNWIHWVRHAPGKGLEWIACVSGSSGNIYYATWAKGRFTMSKASSTTVTLRMTSLTAADTATYFCARGWNLWGPGTLVTVSS
VL: AQVLTQTPASVSAAVGGTVTINCQASQSVYSSNLLTWYQKKPGQPPKLLIYEASKLPSGIPSRFSGSGSGTQFTLTISDVQCADAATYYCLGIYDCVLADCQAFGGGTEVVVKG
notes: Rabbit monoclonal antibody; also called clone 39 (KIP-8); Clone 39-4 vh1
For B1, the binding result is on record as “binds”.
